Experimental data reported in PMC2781058 (Proceedings of the National Academy of Sciences of the …, 2009).

T1: Med18 (S. cerevisiae, UniProt P32585 1-307)
T1 sequence (looked up): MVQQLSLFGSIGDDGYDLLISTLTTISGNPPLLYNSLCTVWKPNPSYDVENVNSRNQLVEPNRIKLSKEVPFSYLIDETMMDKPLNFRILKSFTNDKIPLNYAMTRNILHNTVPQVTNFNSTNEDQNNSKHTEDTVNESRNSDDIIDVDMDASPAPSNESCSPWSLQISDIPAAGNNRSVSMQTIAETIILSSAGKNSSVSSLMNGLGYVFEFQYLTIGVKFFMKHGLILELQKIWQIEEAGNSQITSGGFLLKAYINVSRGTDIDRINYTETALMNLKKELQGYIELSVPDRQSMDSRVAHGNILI

B1: Med20 (natural protein, S. cerevisiae, UniProt P34162 1-210, looked up)
chain: MGKSAVIFVERATPATLTELKDALSNSILSVRDPWSIDFRTYRCSIKNLPADVSKLMYSITFHHHGRQTVLIKDNSAMVTTAAAADIPPALVFNGSSTGVPESIDTILSSKLSNIWMQRQLIKGDAGETLILDGLTVRLVNLFSSTGFKGLLIELQADEAGEFETKIAGIEGHLAEIRAKEYKTSSDSLGPDTSNEICDLAYQYVRALEL
B2: Med8 (natural protein, S. cerevisiae, UniProt P38304 1-223, looked up)
chain: MSQSTASLVPEGNQGSLQEDVSFDFNGVPGQALDAVRMRLAQLTHSLRRIRDEMSKAELPQWYTLQSQLNVTLSQLVSVTSTLQHFQETLDSTVVYPLPKFPTTSHESLVTTLLRKKNIPEVDEWMKYVRETSGVTTALLKDEEIEKLLQQDREITNWARTTFRNEYGKHDFKNEESLSEEHASLLVRDSKPSKPFNVDDVLKFTFTGEKPIITGSTSTSSSN

Molecular target: T1, Med18
Assay: co-IP

Binder	binding result
B1	binds
B2	binds
